Source: article PMC8892091 (The Journal of Biological Chemistry, 2022)
One block for each binder: values may come before it.

How the values were obtained:
His-tag labeled ALKBH6 = His-tag labeled ALKBH6 (human, UniProt Q3KRA9 1-238, fluorescent label on the His-tag (His-tag labeling kit RED-tris-NTA)); test: MST
crystal structure = target: the molecule itself; test: crystal structure

- fold higher binding affinity than ALKBH6 itself (His-tag labeled ALKBH6): 3.5 fold
B1: ZMYND11 peptide (V71 to K151) (domain or fragment, human, UniProt Q15326 71-151, looked up)
chain: VGCKGSKAGIEQEGYWLPGDEIDWETENHDWYCFECHLPGEVLICDLCFRVYHSKCLSDEFRLRDSSSPWQCPVCRSIKKK

B2: ALKBH6 (crystallised, ALKBH6∙Mn2+∙α-KG; holo-ALKBH6) (enzyme, human, UniProt Q3KRA9 1-238, looked up)
chain: MEEQDARVPALEPFRVEQAPPVIYYVPDFISKEEEEYLLRQVFNAPKPKWTQLSGRKLQNWGGLPHPRGMVPERLPPWLQRYVDKVSNLSLFGGLPANHVLVNQYLPGEGIMPHEDGPLYYPTVSTISLGSHTVLDFYEPRRPEDDDPTEQPRPPPRPTTSLLLEPRSLLVLRGPAYTRLLHGIAAARVDALDAASSPPNAAACPSARPGACLVRGTRVSLTIRRVPRVLRAGLLLGK
- binding result (crystal structure): binds
